Where a chain is given by its changes, count along the chain named.
B1: humVHH_S56A (VHH)
VHH: EVQLVESGGGLVQPGGSLRLSCAASGRTFSEYAMGWFRQAPGKEREFVATISWSGGATYYTDSVKGRFTISRDNAKNTVYLQMNSLRPEDTAVYYCAAAGLGTVVSEWDYDYDYWGQGTLVTVSS
B2: humVHH (VHH)
VHH: B1 VHH with A57S

Columns and labels:
[1] = target: monomeric human Fc-fused SARS-CoV-2_RBD-SD1 (SARS-CoV-2 (Wuhan-Hu-1), UniProt P0DTC2); assay: BLI
[2] = target: mouse IgG1 Fc fused SARS-CoV-1 RBD (Sino Biological, 40150-V05H) (SARS-CoV-1, isolate not named, UniProt P59594); assay: BLI
[3] = target: SARS-CoV-2 spike expressed on the surface of HEK293 cells (SARS-CoV-2 (Wuhan-Hu-1), UniProt P0DTC2); assay: flow cytometry on cells

| Binder | fold increase in affinity over humVHH [1] [fold] | binding result [2] | binding result [1] | binding result [3] |
| --- | --- | --- | --- | --- |
| B1 | ~7 | binds | – | – |
| B2 | – | – | binds | binds |

— paper doi:10.1101/2021.03.08.433449 (bioRxiv, 2021)
